Measurements from article PMC4653306, “Metagenomics of an Alkaline Hot Spring in Galicia (Spain): Microbial Diversity Analysis and Screening for Novel Lipolytic Enzymes” (Frontiers in Microbiology, 2015).

Substrate: CCCCCCCCCCCC(=O)Oc1ccc([N+](=O)[O-])cc1
Assay: spectrophotometric p-nitrophenol release (A400), initial rates, Michaelis-Menten fit
Format: biochemical, uncultured organism
Details: extracellular medium of recombinant yeast, Tris/HCl pH 7.5, CaCl2, 40 °C, pNP12 0.002-2.5 mM
Source text: spectrophotometric p-nitrophenol release (A400), initial rates, Michaelis-Menten fit on LOB4Est

B1: LOB4Est (uncultured organism) (protein)
chain: SRPRTAVHDRVLELVQQQIAAGQQLGVQVCAYQNGEKIVDIVAGVMGPDDPRPVQPDTLFNSFSTTKGVAATALHILAEQGKLEYEQPVARYWPAFAANGKERVTVAQAMSHQAGLHAMPTPSTIETLCDWEGGLNWVASGVPAWEPGTATGYHAITYAWVVGGIVYGATGRHIKDVIREEIAIPLGVADELFVGIPEGVEDRLATLAVPAPGEGMALPIPPDHDFFKAMPPSLGGHVYNDMRVRRACLPSANGHFSARALAKMYAALAGGGVVDGVRLVSPERIALMQRILTADMDRVLMLPLRKGVGFMMGGPVNGVSGVFGPRETAFGHSGAGGSTAFCDPETGLAVAVTINQMQMTLQAEGPTYAICQLIREELGCA
notes: yeast alpha-factor secretion signal fusion (removed on secretion), N-terminal FLAG-tag kept; secreted by Saccharomyces cerevisiae BJ3505 (YEpFLAG-1), assayed as unpurified extracellular medium
B1 was tested, and the Km was 298 µM and the Vmax was 264 µM/min.
